Reference: publication PMC11937023

Molecular target: endogenous CD64 (FcγRI) on primary human myeloid cells (human (endogenous in primary human monocytes)) (UniProt P12314)
UniProt P12314, sequence (P12314 16-374): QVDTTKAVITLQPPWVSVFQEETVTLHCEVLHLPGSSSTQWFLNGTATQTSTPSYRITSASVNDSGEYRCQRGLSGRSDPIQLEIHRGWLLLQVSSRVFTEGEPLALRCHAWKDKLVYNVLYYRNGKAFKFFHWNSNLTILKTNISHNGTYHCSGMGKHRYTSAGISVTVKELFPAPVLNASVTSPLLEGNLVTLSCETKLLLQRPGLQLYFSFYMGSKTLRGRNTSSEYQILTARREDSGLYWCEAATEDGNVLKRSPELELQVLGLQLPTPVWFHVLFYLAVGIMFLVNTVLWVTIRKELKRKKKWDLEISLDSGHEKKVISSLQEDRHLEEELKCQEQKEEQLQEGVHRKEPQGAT

Substance | IC50 for inhibiting IL-23 signaling (luciferase in IL-23 reporter cells) in co-culture with R848-stimulated, IFNγ-primed CD64+ THP-1 cells, 16 hours
guselkumab modified to contain LALA mutations in the Fc domain (antibody) | 477 pM
guselkumab (antibody) | 92 pM
